Laboratory results taken from PMC8571087, “Sphingadienine-1-phosphate levels are regulated by a novel glycoside hydrolase family 1 glucocerebrosidase widely distributed in seed plants” (The Journal of Biological Chemistry, 2021).

How the values were obtained:
[1] = substrate: CCCCCCCCCCCCC/C=C/[C@@H](O)[C@H](CO[C@@H]1O[C@H](CO)[C@@H](O)[C@H](O)[C@H]1O)NC(=O)CCCCCCCCCCC; experiment: ceramide release by HPLC, Hanes-Woolf plot; assay type: biochemical, Oryza sativa; details: Buffer J pH 5.5 (sodium acetate, sodium cholate, 0.1% Tween 20), 37 °C, 15 min
Description: (§1) ceramide release by HPLC, Hanes-Woolf plot on Os3BGlu6 (GCase purified from rice leaves)

[2] = substrate: CCCCCCCCCCCCC/C=C/[C@@H](O)[C@H](CO[C@@H]1O[C@H](CO)[C@@H](O)[C@H](O)[C@H]1O)NC(=O)CCCCCCC; experiment: ceramide release by HPLC, Hanes-Woolf plot; assay type: biochemical, Oryza sativa; details: Buffer J pH 5.5 (sodium acetate, sodium cholate, 0.1% Tween 20), 37 °C, 15 min
Description: as §1

[3] = substrate: CCCCCCCCCCCC/C=C/[C@@H](O)C(=O)N[C@@H](CO[C@@H]1O[C@H](CO)[C@@H](O)[C@H](O)[C@H]1O)[C@H](O)/C=C/CC/C=C(\C)CCCCCCCCC; experiment: ceramide release by HPLC, Hanes-Woolf plot; assay type: biochemical, Oryza sativa; details: Buffer J pH 5.5 (sodium acetate, sodium cholate, 0.1% Tween 20), 37 °C, 15 min
Description: as §1

[4] = substrate: CCCCCCCCC/C=C/CC/C=C/[C@@H](O)[C@H](CO[C@@H]1O[C@H](CO)[C@@H](O)[C@H](O)[C@H]1O)NC(=O)[C@H](O)CCCCCCCCCCCCCC; experiment: ceramide release by LC-ESI-MS/MS, Hanes-Woolf plot; assay type: biochemical, Oryza sativa; details: Buffer J pH 5.5 (sodium acetate, sodium cholate, 0.1% Tween 20), 37 °C, 15 min
Description: (§2) ceramide release by LC-ESI-MS/MS, Hanes-Woolf plot on Os3BGlu6 (GCase purified from rice leaves)

[5] = substrate: CCCCCCCCC/C=C\CC/C=C/[C@@H](O)[C@H](CO[C@@H]1O[C@H](CO)[C@@H](O)[C@H](O)[C@H]1O)NC(=O)[C@H](O)CCCCCCCCCCCCCC; experiment: ceramide release by LC-ESI-MS/MS, Hanes-Woolf plot; assay type: biochemical, Oryza sativa; details: Buffer J pH 5.5 (sodium acetate, sodium cholate, 0.1% Tween 20), 37 °C, 15 min
Description: as §2

[6] = substrate: CCCCCCCCCCCCC/C=C/[C@@H](O)[C@H](CO[C@@H]1O[C@H](CO)[C@@H](O)[C@H](O)[C@H]1O)NC(=O)CCCCCNc1ccc([N+](=O)[O-])c2nonc12; experiment: hydrolysis, Hanes-Woolf plot; assay type: biochemical, Oryza sativa; details: Buffer J pH 5.5 (sodium acetate, sodium cholate, 0.1% Tween 20), 37 °C, 15 min, labelled compound (NBD)
purified protein = substrate: O=[N+]([O-])c1ccc(O[C@@H]2O[C@H](CO)[C@@H](O)[C@H](O)[C@H]2O)cc1; experiment: purified protein; details: Buffer J pH 5.5 (sodium acetate, sodium cholate, 0.1% Tween 20), 37 °C, 15 min

B1: Os3BGlu6 (GCase purified from rice leaves) (Oryza sativa Japonica Group) (protein)
chain: QQSGGGLTRGSFPEGFVFGTASAAYQYEGAVKEDGRGQTIWDTFAHTFGKITDFSNADVAVDQYHRFEEDIQLMADMGMDAYRFSIAWSRIYPNGVGQVNQAGIDHYNKLIDALLAKGIQPYVTLYHWDLPQALEDKYKGWLDRQIVDDFAAYAETCFREFGDRVKHWITLNEPHTVAIQGYDAGLQAPGRCSVLLHLYCKAGNSGTEPYVVAHHFILAHAAAASIYRTKYKATQNGQLGIAFDVMWFEPMSNTTIDIEAAKRAQEFQLGWFADPFFFGDYPATMRARVGERLPRFTADEAAVVKGALDFVGINHYTTYYTRHNNTNIIGTLLNNTLADTGTVSLPFKNGKPIGDRANSIWLYIVPRGMRSLMNYVKERYNSPPVYITENGMDDSNNPFISIKDALKDSKRIKYHNDYLTNLAASIKEDGCDVRGYFAWSLLDNWEWAAGYSSRFGLYFVDYKDNLKRYPKNSVQWFKALLKT
Km [1]: 46.1 ± 5.1 µM
kcat [1]: 121 ± 4.4 s⁻¹
kcat/Km [1]: 2.64e+06 ± 190000 M⁻¹ s⁻¹
Km [2]: 47.5 ± 3.8 µM
kcat [2]: 156 ± 8.6 s⁻¹
kcat/Km [2]: 3.29e+06 ± 150000 M⁻¹ s⁻¹
Km [3]: 41.1 ± 4.3 µM
kcat [3]: 151 ± 9.1 s⁻¹
kcat/Km [3]: 3.7e+06 ± 280000 M⁻¹ s⁻¹
Km [4]: 50.0 ± 2.4 µM
kcat [4]: 146 ± 4.7 s⁻¹
kcat/Km [4]: 2.92e+06 ± 50000 M⁻¹ s⁻¹
Km [5]: 19.8 ± 0.8 µM
kcat [5]: 116 ± 2.9 s⁻¹
kcat/Km [5]: 5.85e+06 ± 190000 M⁻¹ s⁻¹
Km [6]: 57.1 ± 7.9 µM
kcat [6]: 112 ± 11.8 s⁻¹
kcat/Km [6]: 1.97e+06 ± 120000 M⁻¹ s⁻¹
Km (purified protein): 3.8253 ± 0.2012 mM
kcat (purified protein): 285 s⁻¹
kcat/Km (purified protein): 75000 M⁻¹ s⁻¹
